Test results reported in paper PMC10397247.
Each block holds one binder with its values, some of them ahead of it.

Assays:
Assay in all cases: two-hybrid library CCmax;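 further: natural log of median RNA to DNA barcode read ratio; higher means stronger binding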
[1] = molecular target: T1, 4H3705-AA; details: mean of both orientations
T1 chain: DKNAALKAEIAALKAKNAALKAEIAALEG

[2] = molecular target: T2, 4H486-AA; details: mean of both orientations
T2 chain: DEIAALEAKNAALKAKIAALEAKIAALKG

[3] = molecular target: T3, 4H535-AA; details: mean of both orientations
T3 chain: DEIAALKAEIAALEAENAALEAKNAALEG

[4] = molecular target: 4H_GCN4; details: mean of both orientations
4H_GCN4, sequence (chain, as listed by the source): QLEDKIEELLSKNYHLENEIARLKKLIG

[5] = molecular target: T4, 4H3782-AA; details: mean of both orientations
T4 chain: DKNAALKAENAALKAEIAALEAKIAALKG

[6] = molecular target: T5, 4H_BCR; details: mean of both orientations
T5 chain: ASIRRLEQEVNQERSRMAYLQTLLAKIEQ

[7] = molecular target: T6, 4H58-AA; details: mean of both orientations
T6 chain: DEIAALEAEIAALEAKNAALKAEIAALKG

[8] = molecular target: T7, 4H465-AA; details: mean of both orientations
T7 chain: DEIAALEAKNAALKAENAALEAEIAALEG

[9] = molecular target: T8, 4H3651-AA
T8 chain: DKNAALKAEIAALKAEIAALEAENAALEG

[10] = molecular target: T9, 4H895-AA; details: mean of both orientations
T9 chain: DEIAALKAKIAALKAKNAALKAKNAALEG

[11] = molecular target: T10, 4H_APH; details: mean of both orientations
T10 chain: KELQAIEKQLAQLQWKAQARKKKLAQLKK

[12] = molecular target: GCN2_T
[13] = molecular target: T11, 4H380-AA; details: mean of both orientations
T11 chain: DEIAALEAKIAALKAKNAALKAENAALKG

[14] = molecular target: T12, 4H446-AA; details: mean of both orientations
T12 chain: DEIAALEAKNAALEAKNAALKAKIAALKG

[15] = molecular target: T13, 4H3129-AA; details: mean of both orientations
T13 chain: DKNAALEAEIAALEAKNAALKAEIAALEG

[16] = molecular target: T14, 4H3969-AA; details: mean of both orientations
T14 chain: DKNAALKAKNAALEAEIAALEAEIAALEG

[17] = molecular target: T15, 4H3414-AA; details: mean of both orientations
T15 chain: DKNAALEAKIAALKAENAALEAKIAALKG

[18] = molecular target: T16, 4H2903-AA; details: mean of both orientations
T16 chain: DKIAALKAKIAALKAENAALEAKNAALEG

[19] = molecular target: T17, 4H3049-AA; details: mean of both orientations
T17 chain: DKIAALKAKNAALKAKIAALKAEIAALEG

[20] = molecular target: T18, 4H2774-AA; details: mean of both orientations
T18 chain: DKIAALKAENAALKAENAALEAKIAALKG

[21] = molecular target: T19, 4H464-AA; details: mean of both orientations
T19 chain: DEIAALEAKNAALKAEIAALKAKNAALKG

[22] = molecular target: T20, 4H63-AA; details: mean of both orientations
T20 chain: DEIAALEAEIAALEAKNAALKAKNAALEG

[23] = molecular target: T21, 4H3595-AA; details: mean of both orientations
T21 chain: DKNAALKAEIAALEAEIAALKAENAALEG

[24] = molecular target: T22, 4H3939-AA; details: mean of both orientations
T22 chain: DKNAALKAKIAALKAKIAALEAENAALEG

[25] = molecular target: T23, 4H3629-AA; details: mean of both orientations
T23 chain: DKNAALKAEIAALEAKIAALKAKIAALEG

[26] = molecular target: T24, 4H341-AA; details: mean of both orientations
T24 chain: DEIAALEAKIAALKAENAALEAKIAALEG

[27] = molecular target: T25, 4H2728-AA
T25 chain: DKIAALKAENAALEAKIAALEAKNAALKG

[28] = molecular target: T26, 4H483-AA; details: mean of both orientations
T26 chain: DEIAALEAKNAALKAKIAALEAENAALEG

[29] = molecular target: T27, 4H2961-AA; details: mean of both orientations
T27 chain: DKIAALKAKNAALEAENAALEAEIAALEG

[30] = molecular target: T28, APC8910-AA; details: mean of both orientations
T28 chain: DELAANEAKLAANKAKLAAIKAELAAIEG

[31] = molecular target: T29, APC4264-AA; details: mean of both orientations
T29 chain: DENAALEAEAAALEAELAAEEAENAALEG

[32] = molecular target: T30, APC232-AA; details: mean of both orientations
T30 chain: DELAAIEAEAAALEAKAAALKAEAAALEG

[33] = molecular target: T31, APC9096-AA; details: mean of both orientations
T31 chain: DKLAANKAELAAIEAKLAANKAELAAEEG

[34] = molecular target: T32, APC7099-AA; details: mean of both orientations
T32 chain: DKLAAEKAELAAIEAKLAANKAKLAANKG

[35] = molecular target: T33, APC4436-AA; details: mean of both orientations
T33 chain: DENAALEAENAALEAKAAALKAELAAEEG

[36] = molecular target: T34, APC9319-AA; details: mean of both orientations
T34 chain: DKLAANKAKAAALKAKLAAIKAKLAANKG

[37] = molecular target: T35, APC3645-AA; details: mean of both orientations
T35 chain: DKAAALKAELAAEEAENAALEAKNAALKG

[38] = molecular target: T36, APC4011-AA; details: mean of both orientations
T36 chain: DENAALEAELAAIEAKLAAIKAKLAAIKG

[39] = molecular target: T37, APC2237-AA
T37 chain: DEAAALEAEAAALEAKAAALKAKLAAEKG

[40] = molecular target: T38, APC5383-AA; details: mean of both orientations
T38 chain: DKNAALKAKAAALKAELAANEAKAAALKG

[41] = molecular target: T39, APC8191-AA; details: mean of both orientations
T39 chain: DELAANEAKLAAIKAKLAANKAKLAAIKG

[42] = molecular target: T40, APC6108-AA; details: mean of both orientations
T40 chain: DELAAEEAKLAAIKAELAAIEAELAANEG

[43] = molecular target: T41, APC2405-AA; details: mean of both orientations
T41 chain: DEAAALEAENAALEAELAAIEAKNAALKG

- interaction score [1]: -1.53
- interaction score [2]: -0.82
- interaction score [3]: -1.16
- interaction score [4]: -1.81
- interaction score [5]: -0.2
- interaction score [6]: -1.92
- interaction score [7]: -0.388
- interaction score [8]: -1.28
- interaction score [9]: -0.561
- interaction score [10]: 2.08
- interaction score [11]: -1.76
- interaction score [12]: -1.92
B1: 4H3651-AA (peptide)
chain: DKNAALKAEIAALKAEIAALEAENAALEG

- interaction score [13]: -1.69
- interaction score [14]: -0.989
- interaction score [15]: 0.939
- interaction score [16]: -1.14
- interaction score [17]: -1.03
- interaction score [18]: -1.25
- interaction score [19]: 0.953
- interaction score [20]: -1.68
- interaction score [21]: 0.651
- interaction score [22]: -0.35
- interaction score [23]: -1.57
- interaction score [5]: -1.28
- interaction score [24]: -1.01
- interaction score [25]: -0.438
- interaction score [26]: -0.899
- interaction score [27]: -0.514
- interaction score [28]: 2.24
- interaction score [29]: -1.41
B2: 4H2728-AA (peptide)
chain: DKIAALKAENAALEAKIAALEAKNAALKG

- interaction score [30]: -1.72
- interaction score [31]: -1.65
- interaction score [32]: -1.19
- interaction score [33]: -1.63
- interaction score [34]: -1.59
- interaction score [35]: -2.06
- interaction score [36]: -2.27
- interaction score [37]: -1.41
- interaction score [38]: 1.54
- interaction score [39]: -1.33
- interaction score [40]: -1.52
- interaction score [41]: -1.41
- interaction score [42]: -1.71
- interaction score [43]: -1.48
B3: APC2237-AA (peptide)
chain: DEAAALEAEAAALEAKAAALKAKLAAEKG
